The record followed here is US9957297B2, “Template-fixed peptidomimetics as inhibitors of FPR1” (POLYPHOR AG, priority 2011, dated 2018).

The labels stand for the following.
T1: Formyl-Peptide Receptor 1 (UniProt P21462 1-350, limits assumed)
T1 sequence (looked up): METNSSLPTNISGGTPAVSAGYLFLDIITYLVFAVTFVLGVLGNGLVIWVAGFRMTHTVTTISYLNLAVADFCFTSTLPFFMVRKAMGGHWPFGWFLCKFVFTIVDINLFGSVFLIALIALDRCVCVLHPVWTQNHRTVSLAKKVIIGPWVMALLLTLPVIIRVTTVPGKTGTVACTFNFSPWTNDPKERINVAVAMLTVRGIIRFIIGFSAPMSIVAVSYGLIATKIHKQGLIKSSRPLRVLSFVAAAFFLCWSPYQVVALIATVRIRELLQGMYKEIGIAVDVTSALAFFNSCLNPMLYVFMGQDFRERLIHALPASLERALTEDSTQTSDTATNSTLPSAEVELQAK

B1: cyclo(-Tyr-His-Ala-Cys-His-Gly-^DPro-Trp-Thr-Ile-Cys-Tyr-Gln-Glu-^DPro-Pro-) (peptide)
peptide: cyclo(YHACHG[dP]WTICYQE[dP]P)
modifications: disulfide 4-11
SMILES: CC[C@H](C)[C@@H]1NC(=O)[C@H]([C@@H](C)O)NC(=O)[C@H](Cc2c[nH]c3ccccc23)NC(=O)[C@H]2CCCN2C(=O)CNC(=O)[C@H](Cc2c[nH]cn2)NC(=O)[C@@H]2CSSC[C@H](NC1=O)C(=O)N[C@@H](Cc1ccc(O)cc1)C(=O)N[C@@H](CCC(N)=O)C(=O)N[C@@H](CCC(=O)O)C(=O)N1CCC[C@@H]1C(=O)N1CCC[C@H]1C(=O)N[C@@H](Cc1ccc(O)cc1)C(=O)N[C@@H](Cc1c[nH]cn1)C(=O)N[C@@H](C)C(=O)N2
B2: cyclo(-Glu-His-Ala-Cys-Trp-Gly-^DPro-Trp-Thr-Ile-Cys-Tyr-Gln-Lys-^DPro-Pro-) (peptide)
peptide: cyclo(EHACWG[dP]WTICYQK[dP]P)
modifications: disulfide 4-11
SMILES: CC[C@H](C)[C@@H]1NC(=O)[C@H]([C@@H](C)O)NC(=O)[C@H](Cc2c[nH]c3ccccc23)NC(=O)[C@H]2CCCN2C(=O)CNC(=O)[C@H](Cc2c[nH]c3ccccc23)NC(=O)[C@@H]2CSSC[C@H](NC1=O)C(=O)N[C@@H](Cc1ccc(O)cc1)C(=O)N[C@@H](CCC(N)=O)C(=O)N[C@@H](CCCCN)C(=O)N1CCC[C@@H]1C(=O)N1CCC[C@H]1C(=O)N[C@@H](CCC(=O)O)C(=O)N[C@@H](Cc1c[nH]cn1)C(=O)N[C@@H](C)C(=O)N2
B3: cyclo(-Tyr-His-Ala-Cys-Tyr-Gly-^DPro-Trp-Thr-Ile-Cys-Tyr-Gln-Lys-^DPro-Pro-) (peptide)
peptide: cyclo(YHACYG[dP]WTICYQK[dP]P)
modifications: disulfide 4-11
SMILES: CC[C@H](C)[C@@H]1NC(=O)[C@H]([C@@H](C)O)NC(=O)[C@H](Cc2c[nH]c3ccccc23)NC(=O)[C@H]2CCCN2C(=O)CNC(=O)[C@H](Cc2ccc(O)cc2)NC(=O)[C@@H]2CSSC[C@H](NC1=O)C(=O)N[C@@H](Cc1ccc(O)cc1)C(=O)N[C@@H](CCC(N)=O)C(=O)N[C@@H](CCCCN)C(=O)N1CCC[C@@H]1C(=O)N1CCC[C@H]1C(=O)N[C@@H](Cc1ccc(O)cc1)C(=O)N[C@@H](Cc1c[nH]cn1)C(=O)N[C@@H](C)C(=O)N2
B4: cyclo(-Thr-His-Ala-Cys-Trp-Gly-^DPro-Trp-Thr-Ile-Cys-Tyr-Gln-Lys-^DPro-Pro-) (peptide)
peptide: cyclo(THACWG[dP]WTICYQK[dP]P)
modifications: disulfide 4-11
SMILES: CC[C@H](C)[C@@H]1NC(=O)[C@H]([C@@H](C)O)NC(=O)[C@H](Cc2c[nH]c3ccccc23)NC(=O)[C@H]2CCCN2C(=O)CNC(=O)[C@H](Cc2c[nH]c3ccccc23)NC(=O)[C@@H]2CSSC[C@H](NC1=O)C(=O)N[C@@H](Cc1ccc(O)cc1)C(=O)N[C@@H](CCC(N)=O)C(=O)N[C@@H](CCCCN)C(=O)N1CCC[C@@H]1C(=O)N1CCC[C@H]1C(=O)N[C@@H]([C@@H](C)O)C(=O)N[C@@H](Cc1c[nH]cn1)C(=O)N[C@@H](C)C(=O)N2
B5: cyclo(-Tyr-His-Ala-Cys-Phe-Gly-^DPro-Trp-Thr-Ile-Cys-Tyr-Gln-Lys-^DPro-Pro-) (peptide)
peptide: cyclo(YHACFG[dP]WTICYQK[dP]P)
modifications: disulfide 4-11
SMILES: CC[C@H](C)[C@@H]1NC(=O)[C@H]([C@@H](C)O)NC(=O)[C@H](Cc2c[nH]c3ccccc23)NC(=O)[C@H]2CCCN2C(=O)CNC(=O)[C@H](Cc2ccccc2)NC(=O)[C@@H]2CSSC[C@H](NC1=O)C(=O)N[C@@H](Cc1ccc(O)cc1)C(=O)N[C@@H](CCC(N)=O)C(=O)N[C@@H](CCCCN)C(=O)N1CCC[C@@H]1C(=O)N1CCC[C@H]1C(=O)N[C@@H](Cc1ccc(O)cc1)C(=O)N[C@@H](Cc1c[nH]cn1)C(=O)N[C@@H](C)C(=O)N2

Bridges are numbered along the chain shown (N, C = ends). [ ]: non-standard residue; d: D form.

In this assay the target is T1, Formyl-Peptide Receptor 1. Description: cell-based or functional assay.
Consider B1, for which the “β-Arrestin IC50” value was found to be 132 nM.
To B2 belongs 131 nM; to B3, 184 nM.
As for B4, the “β-Arrestin IC50” value amounted to 294 nM.
To B5 belongs 166 nM.
